Columns and labels:
HT29 cells [1] = assay: Protease assay: RPM phage binding to protease-treated cells; settings: 37° C.
Method: HT29 cells were incubated at 37° C. with either active or boiled Collagenase diluted 1:20 for 10 minutes, Trypsin-EDTA 0.25% (Gibco) for 5 minutes or Proteinase K (Gibco) diluted 1:600 for 1 minute. After incubation, cells were then incubated with RPM bearing phage as described above. The number of phage remaining bound was quantified by real time PCR.
(§1) In order to further this observation, HT29 cells were treated with active or boiled proteases to determine the effect of treatment on the ability of an RPM displaying phage to bind. HT29 cells were treated with active or boiled collagenase for 15 minutes, trypsin for 5 minutes, or proteinase K for 0.5 minutes at 37° C. After protease treatment, cells were washed, then an equal number of phage were added and allowed to bind. […] The decrease in phage binding to the HT29 cells was due to the protease activity since boiling the proteases abolished the effect with phage binding returning to levels of that observed for PBS treated cells (FIG. 6B). […] After treating HT29 cells with proteases as described above, MTT was added to the cells and incubated for 45 minutes at 37° C. After incubation, the cells were solubilized with 0.1N HCl in isopropanol and the absorbance due to MTT incorporation was determined.

HT29 cells [2] = assay: MTT viability of protease-treated cells; assay type: cell-based; settings: MTT 45 minutes at 37° C. after protease treatment
Method: as §1

B1: proteinase K: protease used to treat HT29 cells (protein, UniProt P06873 106-384, looked up)
Proteinase K: AAQTNAPWGLARISSTSPGTSTYYYDESAGQGSCVYVIDTGIEASHPEFEGRAQMVKTYYYSSRDGNGHGTHCAGTVGSRTYGVAKKTQLFGVKVLDDNGSGQYSTIIAGMDFVASDKNNRNCPKGVVASLSLGGGYSSSVNSAAARLQSSGVMVAVAAGNNNADARNYSPASEPSVCTVGASDRYDRRSSFSNYGSVLDIFGPGTSILSTWIGGSTRSISGTSMATPHVAGLAAYLMTLGKTTAASACRYIADTANKGDLSNIPFGTVNLLAYNNYQA
decrease of RPM phage binding to active protease treated HT29 cells (HT29 cells [1]): 90%
average absorbance (MTT incorporation) of treated cells (HT29 cells [2]): 0.183

From patent publication US7452965B2, “Colon tumor specific binding peptides” (University of Utah Research Foundation, priority 2002, dated 2008)
